Target: immune complexes of Dylight 650-labeled bovine serum albumin, polyclonal rabbit anti-BSA and human serum complement (bovine) (UniProt P02769)
Assay: cell-based or functional assay

Chain of UniProt P02769 (P02769 25-607, one chain of several): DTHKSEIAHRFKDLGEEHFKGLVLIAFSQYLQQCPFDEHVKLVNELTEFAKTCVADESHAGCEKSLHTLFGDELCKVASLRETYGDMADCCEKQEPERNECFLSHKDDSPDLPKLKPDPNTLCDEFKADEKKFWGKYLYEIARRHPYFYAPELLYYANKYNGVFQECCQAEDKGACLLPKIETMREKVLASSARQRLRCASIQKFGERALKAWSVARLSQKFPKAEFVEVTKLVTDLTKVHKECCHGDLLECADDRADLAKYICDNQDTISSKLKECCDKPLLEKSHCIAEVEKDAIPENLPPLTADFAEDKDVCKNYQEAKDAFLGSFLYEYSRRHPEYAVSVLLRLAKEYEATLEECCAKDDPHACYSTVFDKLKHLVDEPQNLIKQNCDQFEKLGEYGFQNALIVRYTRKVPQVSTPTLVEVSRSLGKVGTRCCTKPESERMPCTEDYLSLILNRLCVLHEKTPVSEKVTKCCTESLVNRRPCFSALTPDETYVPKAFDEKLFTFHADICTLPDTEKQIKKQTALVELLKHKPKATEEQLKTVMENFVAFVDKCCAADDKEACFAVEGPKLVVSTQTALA

complement receptor 1 (CR1) over-expressed on the surface of cultured erythroid cells (from UniProt P17927 42-2039)
uptake of labeled immune complexes by PMA-activated U937 macrophages in co-culture (flow cytometry fluorescence): 2 fold
